Assay results as given in US20180244746A1 (INSERM INSTITUT NATIONAL DE LA SANT ET DE LA RECHERCHE M …, published 2018).

T1: zinc transporter (ZnT)8 peptide on HLA-A*02:01 (human)
T1 peptide: VAANIVLTV

T2: zinc transporter (ZnT)8 peptide on HLA-A*02:01 (human)
T2 peptide: AVAANIVLTV


Legend:
[1] = target: T3, recombinant HLA-A2 molecules (human); assay: affinity measurement of recombinant HLA-A2 molecules complexed with the peptide (method not described; data not shown); ZnT8186-194 (…), the shorter epitope
T3 construct: also called HLA-A*02:01

[2] = target: T3, recombinant HLA-A2 molecules; assay: stability measurement of recombinant HLA-A2 molecules complexed with the peptide (method not described; data not shown)
[3] = target: T1, zinc transporter (ZnT)8 peptide on …; assay: multimer staining
[4] = target: T2, zinc transporter (ZnT)8 peptide on …; assay: multimer staining
[5] = target: T3, recombinant HLA-A2 molecules; assay: affinity measurement of recombinant HLA-A2 molecules complexed with the peptide (method not described; data not shown); ZnT8185-194 (…), the longer variant

Kd [1] [nM] | t1/2 (stability of the peptide/HLA-A2 complex) [2] [h] | binding result [3] | binding result [4] | Kd [5] [nM] | Binder
– | – | recognises | – | – | D010R 12B4 (TCR) alpha TRAV1-2*01 TRAJ26*01 CDR3: CAVDNYGQNFVF beta TRBV19*01 TRBJ2-3*01 CDR3: CASTGLAGTQYF
– | – | recognises | recognises | – | H328C 9C8 (TCR) alpha TRAV25*01 TRAJ26*01 CDR3: CAGILSYGQNFVF beta TRBV25-1*01 TRBJ1-2*01 CDR3: CASSEVGQGFNGYTF
– | – | recognises | recognises | – | H328C 9B3 (TCR) alpha TRAV21*01 TRAJ57*01 CDR3: CAVVRTQGGSEKLVF beta TRBV9*01 TRBJ1-6*02 CDR3: CASSPWTGIPYNSPLHF

Further lines, the binder ahead of its results:

Binder | Kd [1] [nM] | t1/2 (stability of the peptide/HLA-A2 complex) [2] [h] | binding result [3] | binding result [4] | Kd [5] [nM]
VAANIVLTV (Synthesized by ChinaPeptides at >85% purity) [ZnT8186-194 peptide (VAANIVLTV)] | 15 | 1.8 | – | – | –
D010R 1E2 (TCR) alpha TRAV35*02 TRAJ36*01 CDR3: CAGTRNNLFF beta TRBV19*01 TRBJ2-7*01 CDR3: CASGGSSYEQYF | – | – | recognises | recognises | –
AVAANIVLTV (Synthesized by ChinaPeptides at >85% purity) [ZnT8185-194 peptide (AVAANIVLTV)] | – | 2.3 | – | – | 207
